Here are results for eight compounds from patent US20160158369A1, “PHARMACEUTICAL COMPOSITION FOR RESPIRATORY ADMINISTRATION” (SEIKAGAKU CORPORATION, priority 2013, published 2016).

The subject of data set [1] is rat antigen-induced asthma model. Kind of data set: Rat antigen-induced asthma model, eosinophils in bronchoalveolar lavage fluid. It is filed as in vivo. The settings on record: for number of eosinophils in bronchoalveolar lavage fluid, % of control: average value. The procedure: Intraperitoneal administration of 1 mL of aluminum hydroxide gel containing ovalbumin (1 mg/mL) was performed 3 times with one day interval. 14 Days after performing the first sensitization, intraperitoneal administration of 1 mL of aluminum hydroxide gel containing ovalbumin (1 mg/mL) was performed again followed by the second sensitization. 7 Days after the second sensitization, inhalation exposure of physiological saline (10 mg/mL) containing ovalbumin was performed by using a nebulizer five times with one day interval in order to induce asthma.
The 0.6 mg/mL prednisolone suspension was orally administered by using a sonde for oral administration under no anesthesia to have prednisolone amount of 3 mg/kg.
Meanwhile, the test was performed with n=6 to 12.
24 Hours after the fifth exposure, phosphate buffered saline (2 mL) containing 0.1% bovine serum albumin heated to 37° C. was injected to a bronchus of a rat under pentobarbital anesthesia and collected thereafter. This procedure was repeated 5 times to have bronchoalveolar lavage fluid. The bronchoalveolar lavage fluid was centrifuged for 3 minutes at 200×g and room temperature. The supernatant was discarded, and the pellet was re-suspended in phosphate buffered saline (500 μL) containing 0.1% bovine serum albumin.
Subsequently, a smear sample of the suspension was prepared followed by Diff-Quik staining. According to cell fractionation, ratio of eosinophil in white blood cells was calculated. According to integration with the number of white blood cells in bronchoalveolar lavage fluid, the number of […] in bronchoalveolar lavage fluid was calculated. Meanwhile, the number of white blood cells in bronchoalveolar lavage fluid was measured by using a blood cell counting chamber. The results are shown in FIG. 4 and the following table.
Dose responsiveness of the compound va in an OVA sensitized rat model was determined in the same manner as (Test example B2).
There were three doses for determination, i.e., 0.35 mg/kg, 3.5 mg/kg, and 35 mg/kg, such that the budesonide amount for administration is 0.1 mg/kg, 1 mg/kg, or 10 mg/kg.

The nature of data set [2]: in vivo. Here is the method:
As a test substance, the compound is was used, and it was used after being dissolved in phosphate buffered saline such that the pharmaceutical concentration is 3 mg/mL.
For the test, a BN/CrlCrlj rat (Charles River Laboratories International, Inc., 5-week old) was used. It was placed on its back and fixed under general anesthesia, and by using a sonde for intratracheal administration (MicroSprayer (registered trademark) Aerosolizer Model IA-1B, manufactured by Penn-Century), intratracheal administration was performed with volume of 100 μL. As general anesthesia, inhalation of isoflurane (concentration of 3.0% and flow rate of 2.0 L/min) was employed.
Weight of the pulmonary tissue was measured and, after being added with an aqueous solution of ammonium formic acid (pH 6.0):methanol (3:2, v/v) at ratio of 40× (1 g: 40 mL), it was homogenated for about 1 minute under ice cooling by using a homogenizer. […] Meanwhile, the measurement was made with n=3 for each evaluation time point.
Each parameter of pharmacokinetics was calculated from a change in average content in pulmonary tissue. If there was an animal showing the measurement value of less than the lower limit of quantification, the average content in pulmonary tissue was calculated by substituting the value of 0 (zero) for it. The time t (hr) for calculating AUC0-t was the final time point at which the quantification can be made. Meanwhile, for calculation of the parameters of pharmacokinetics, non-compartmental analysis model analysis by WinNonlin Professional (registered trademark) Ver 5.2.1 was used. […] The results are shown in FIG. 2 and the following table.
The compounds vb obtained from Example 5 was evaluated in the same manner as the method described in (Test example B1) in terms of the persistent property of the pharmaceutical in a pulmonary tissue of a normal rat.
As a comparative control group, budesonide alone in the same amount as the compound vb, and a mixture of budesonide and chondroitin sulfate in the same amount as the compound vb were administered. Meanwhile, in the present measurement system, the lower detection limit of budesonide was 1 ng/mL. Meanwhile, the evaluation time points include three points, i.e., Hour 4, 24, and 72.

The nature of data set [3]: Blood kinetics (plasma drug concentration) in normal rat after intratracheal administration. It is filed as in vivo. Here is the method:
The resultant was extracted with chloroform and methanol, and the extracted solution was measured by LC-MS/MS.

Data set [4] in a line: Drug dissociation test: polysaccharide derivative in buffer solution, 36°C, 1 week, HPLC. It is filed as physicochemical. The procedure: In the examples relating to drug dissociation test, the drug dissociation ratio was evaluated as described below.
Sodium dihydrogen phosphate dihydrate (780 mg (5.0 mmol)) was dissolved in 500 mL of distilled water to give a liquid A. Separately, disodium hydrogen phosphate dodecahydrate (1.79 g (5.0 mmol)) was dissolved in 500 mL of distilled water to give a liquid B. By mixing the liquid A and liquid B at ratio of 2:3, a phosphate buffer solution of pH 7.5 was prepared.
0.62 g (10 mmol) of boric acid and 0.75 g (10 mmol) of potassium chloride were weighed and dissolved in 500 mL of distilled water to give a liquid C. Separately, by diluting 0.1 N sodium hydroxide solution with distilled water (×10 dilution), a liquid D was prepared.
50 mL of the liquid C and 7 mL of the liquid D were added to a 100 mL mess flask, and according to dilution to 100 mL with distilled water, a borate buffer solution of pH 8.0 was prepared. Furthermore, 50 mL of the liquid C and 40 mL of the liquid D were added to a 100 mL mess flask, and according to mess-up to 100 mL with distilled water, a borate buffer solution of pH 9.0 was prepared.
Each polysaccharide derivative obtained from above was dissolved in a buffer solution at each pH so as to have a concentration of 5 mg/10 mL, and heated for 1 week in an incubator at 36° C. Then, the drug dissociation ratio during the incubation was evaluated every 24 hours by liquid chromatography (HPLC).
The evaluation was performed by measuring the ratio between the drug amount remained in a polysaccharide derivative and the dissociated drug amount according to use of a size exclusion chromatography column (manufactured by TOSOH, TSKgel α-6000, 7.8 mmI.D.×30 cm).
Detailed conditions for the liquid chromatography are as follows.
Analysis time: 40 minutes
Solution for elution: acetonitrile (for HPLC):physiological saline=1:2
Detector: UV detector (240 nm)

The nature of data set [5]: Solubility in water.
Where [6] appears, read: single intratracheal administration 100 μL, 7 days before the evaluation time point.
[7] abbreviates: BN/CrlCrlj, rat, plasma, inhaled or intranasal, 0.3 mg/animal.

For the compound `C[C@]12C=CC(=O)C=C1CC[C@@H]1[C@@H]2[C@@H](O)C[C@@]2(C)[C@H]1CC[C@]2(O)C(=O)CO` [Prednisolone, prednisolone, reference compound], the “number of eosinophils in bronchoalveolar lavage fluid, % of control” value (from here on “number of eosinophils … % of control”) in data set [1] (oral 3 mg/kg, five times, 30 minutes before inducing asthma, positive control) is 28.0 % of control.

As a reminder, the Tmax is the time from dosing to the highest level. Broadly, the Cmax is the highest concentration seen after dosing. Take `C[C@H]1C[C@H]2[C@@H]3CCC4=CC(=O)C=C[C@]4(C)[C@@]3(F)[C@@H](O)C[C@]2(C)[C@@]1(O)C(=O)CO` [Betamethasone, betamethasone]: the “number of eosinophils … % of control” value in data set [1] (setting [6]) is 90.0 % of control. Besides, in data set [2] (BN/CrlCrlj, rat, in vivo, inhaled or intranasal), the time to peak (Tmax) is 4 h. For the same compound, the “time after administration until which exposure of betamethasone was observed in pulmonary tissue” value in data set [2] (normal rat, intratracheal, final evaluation time point […], lower limit for quantification 10 ng/g) was determined as 48 h. Also, in data set [3] (setting [7]), the Cmax turned out to be 1010 ng/mL and the Tmax amounted to 0.5 h. Besides, the “course of plasma concentration (in words)” value in data set [3] (betamethasone in plasma, normal rat, intratracheal, lower limit of quantification 5 ng/mL) is “after 24 hours, it was lower than the lower limit for quantification”.

Turning to “Chondroitin Sulfate Introduced with 21-β-Alanyl-Betamethasone [Compound ia]”, in data set [1] (Day 7 after single intratracheal administration), the “eosinophil infiltration compared to phosphate buffered saline group (in words)” value is “significantly suppressed eosinophil infiltration”. Besides, the “number of eosinophils … % of control” value in data set [1] (setting [6]) is recorded as 56.8 % of control.

Turning to “Hyaluronic Acid Introduced with Proxyphylline [xxiib]”, the “Dissociation ratio (%/day)” value in data set [4] (pH 7.4, 36°C) came to 0.8 %/day; in data set [4] (pH 8.0, 36°C), 2.0 %/day. Besides, the drug dissociation ratio in data set [4] (pH 7.4, 36°C, day 0) was determined as 0.0%; in data set [4] (pH 7.4, 36°C, day 1) it was 0.7%; in data set [4] (pH 7.4, 36°C, day 2) it was 1.3%; in data set [4] (pH 7.4, 36°C, day 3), 2.2%; in data set [4] (pH 7.4, 36°C, day 4) it was 2.8%; in data set [4] (pH 7.4, 36°C, day 5), 3.6%. Also, the drug dissociation ratio in data set [4] (pH 7.4, 36°C, day 6) amounted to 4.4%; in data set [4] (pH 7.4, 36°C, day 7), 5.3%; in data set [4] (pH 8.0, 36°C, day 0) it was 0.0%; in data set [4] (pH 8.0, 36°C, day 1) it was 2.1%; in data set [4] (pH 8.0, 36°C, day 2) it was 4.6%; in data set [4] (pH 8.0, 36°C, day 3) it was 7.0%. Moreover, the drug dissociation ratio was 8.8% in data set [4] (pH 8.0, 36°C, day 4); 10.4% in data set [4] (pH 8.0, 36°C, day 5); 12.6% in data set [4] (pH 8.0, 36°C, day 6); 14.3% in data set [4] (pH 8.0, 36°C, day 7).

For “Hyaluronic Acid Introduced with 21-β-Alanyl-Budesonide (880 kDa) [Compound via]”, the “Dissociation ratio (%/day)” value turned out to be 4.9 %/day in data set [4] (pH 7.4, 36°C) and 8.2 %/day in data set [4] (pH 8.0, 36°C). Also, the drug dissociation ratio was 2.0% in data set [4] (pH 7.4, 36°C, day 0); 9.6% in data set [4] (pH 7.4, 36°C, day 1); 16.8% in data set [4] (pH 7.4, 36°C, day 2); 18.3% in data set [4] (pH 7.4, 36°C, day 3); 21.7% in data set [4] (pH 7.4, 36°C, day 4); 23.9% in data set [4] (pH 7.4, 36°C, day 5). Besides, the drug dissociation ratio in data set [4] (pH 7.4, 36°C, day 6) is listed as 30.9%; in data set [4] (pH 7.4, 36°C, day 7) it was 34.3%; in data set [4] (pH 8.0, 36°C, day 0) it was 0.9%; in data set [4] (pH 8.0, 36°C, day 1), 15.0%; in data set [4] (pH 8.0, 36°C, day 2) it was 20.4%; in data set [4] (pH 8.0, 36°C, day 3), 26.4%. Further, the drug dissociation ratio in data set [4] (pH 8.0, 36°C, day 4) was determined as 39.9%; in data set [4] (pH 8.0, 36°C, day 5), 46.2%; in data set [4] (pH 8.0, 36°C, day 6) it was 52.6%; in data set [4] (pH 8.0, 36°C, day 7), 57.1%.

Turning to `CCCC1OC2CC3C4CCC5=CC(=O)C=CC5(C)C4C(O)CC3(C)C2(C(=O)COC(=O)CCCCCCCCCCCN)O1` (stereo not shown) [Compound xviiib, Budesonide 12-Aminododecylate], the solubility in water result in data set [5] is recorded as “good solubility in water”.

In the case of “Chondroitin Sulfate Introduced with 11-β-Alanyl-Propionic Acid Fluticasone [Compound vii]”, the “Dissociation ratio (%/day)” value stood at 0.1 %/day in data set [4] (pH 7.4, 36°C) and 0.2 %/day in data set [4] (pH 8.0, 36°C). For the same compound, the drug dissociation ratio in data set [4] (pH 7.4, 36°C, day 0) turned out to be 0.0%; in data set [4] (pH 7.4, 36°C, day 1), 0.0%; in data set [4] (pH 7.4, 36°C, day 2), 0.0%; in data set [4] (pH 7.4, 36°C, day 3) it was 0.2%; in data set [4] (pH 7.4, 36°C, day 4), 0.4%; in data set [4] (pH 7.4, 36°C, day 5), 0.4%. Further, the drug dissociation ratio in data set [4] (pH 7.4, 36°C, day 6) was 0.4%; in data set [4] (pH 7.4, 36°C, day 7), 0.4%; in data set [4] (pH 8.0, 36°C, day 0), 0.0%; in data set [4] (pH 8.0, 36°C, day 1) it was 0.3%; in data set [4] (pH 8.0, 36°C, day 2), 0.6%; in data set [4] (pH 8.0, 36°C, day 3), 0.7%. Moreover, the drug dissociation ratio in data set [4] (pH 8.0, 36°C, day 4) came out at 0.7%; in data set [4] (pH 8.0, 36°C, day 5) it was 1.0%; in data set [4] (pH 8.0, 36°C, day 6) it was 1.0%; in data set [4] (pH 8.0, 36°C, day 7), 1.1%.

As to “Hyaluronic Acid Introduced with 21-β-Alanyl-Budesonide (390 kDa) [Compound vib]”, the “Dissociation ratio (%/day)” value in data set [4] (pH 7.4, 36°C) was 4.9 %/day; in data set [4] (pH 8.0, 36°C) it was 7.9 %/day. Besides, the drug dissociation ratio in data set [4] (pH 7.4, 36°C, day 0) was 3.3%; in data set [4] (pH 7.4, 36°C, day 1), 9.3%; in data set [4] (pH 7.4, 36°C, day 2), 16.3%; in data set [4] (pH 7.4, 36°C, day 3), 18.4%; in data set [4] (pH 7.4, 36°C, day 4) it was 22.3%; in data set [4] (pH 7.4, 36°C, day 5) it was 25.2%. Moreover, the drug dissociation ratio in data set [4] (pH 7.4, 36°C, day 6) came to 30.7%; in data set [4] (pH 7.4, 36°C, day 7), 34.6%; in data set [4] (pH 8.0, 36°C, day 0), 0.4%; in data set [4] (pH 8.0, 36°C, day 1) it was 12.8%; in data set [4] (pH 8.0, 36°C, day 2), 16.1%; in data set [4] (pH 8.0, 36°C, day 3) it was 23.2%. Also, the drug dissociation ratio was found to be 36.7% in data set [4] (pH 8.0, 36°C, day 4); 44.1% in data set [4] (pH 8.0, 36°C, day 5); 50.2% in data set [4] (pH 8.0, 36°C, day 6); 55.3% in data set [4] (pH 8.0, 36°C, day 7).
